Experimental findings from US20220064301A1 (XILIO DEVELOPMENT, published 2022) are described below.

The EC50 is the concentration that produces a half-maximal response. As a reminder, the Kd is a measure of binding affinity in units of concentration. By koff is commonly meant a measure of how fast the partners let go of each other. The term kon denotes the rate constant with which the complex forms.

Like-named read-outs stand apart in the source and are kept apart here.

Assay [1] has as its target T1, human CTLA4-Fc (R&D #7268-CT) (human, UniProt P16410 36-162).
T1 construct: Bought reagent coated on ELISA plates; also called human CTLA-Fc; not shown: Fc part of the bought fusion; not described
The assay can be described thus: huCTLA4-Fc binding ELISA (luminescence). The protocol: All ELISA were performed in a manner substantially similar to the description below or generally consistent with methods known in the art. Polystyrene 96-well microplates (Fisher #07-200-591) were coated with 1 μg/mL of human CTLA4-Fc (R&D #7268-CT) per well and stored overnight at 4° C. Plates were washed with 0.05% Tween in TBS (TBS-T), blocked with 1% BSA (Sigma Aldrich #B4287-25G), and washed with TBS-T. Serial dilutions of samples containing anti-CTLA4 antibodies described below were made in assay buffer (PBS+0.05% Tween+1% BSA), added to plate, and shaken orbitally at 100 RPM at room temperature for one hour. After washing with TBS-T, anti-human Kappa light chain [clone: SB81a]-HRP (Abcam #ab79115) diluted to 1:8000 in assay buffer was applied to the wells and shaken at room temperature for one hour. Plates were washed with TBS-T, HRP substrate (Super Signal Pico Chemiluminescent Substrate, Thermo #37069) was applied to plate, and luminescence was recorded using a spectrophotometer (BioTek). Data was analyzed with GraphPad Prism.

For assay [2], the target named is T2, FcγRIIIa on Jurkat effector cells (FcγRIIIa reporter bioassay). The assay can be described thus: cell-based or functional assay.
T2 sequence (P08637 whole entry): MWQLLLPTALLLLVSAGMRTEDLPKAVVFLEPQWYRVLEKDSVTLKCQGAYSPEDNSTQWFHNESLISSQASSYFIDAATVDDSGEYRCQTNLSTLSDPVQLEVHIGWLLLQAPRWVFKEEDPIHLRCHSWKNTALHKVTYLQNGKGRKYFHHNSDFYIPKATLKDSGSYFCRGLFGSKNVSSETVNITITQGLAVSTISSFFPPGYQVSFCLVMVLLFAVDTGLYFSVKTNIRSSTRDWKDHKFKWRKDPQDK
Assay [3] deals with T2, FcγRIIIa on Jurkat effector cells …. The assay can be described thus: cell-based or functional assay. This is another data set of the same source.
For assay [4], the target named is cynomolgus CTLA4 (cynoCTLA4) (cynomolgus, UniProt G7PL88 36-161). The assay can be described thus: SPR, Biacore T200, 37 C. As to the method: (§1) All Surface Plasmon Resonance (SPR) analysis were performed in a manner substantially similar to the description below or generally consistent with methods known in the art. SPR was performed on certain antibodies to assess binding between the antibody, or fragment thereof, and a target protein, such as human CTLA4 (huCTLA4), cynomolgus CTLA4 (cynoCTLA4), or FcγRIIIa (CD16a). […] SPR analysis was performed on a GE Biacore T200 instrument at 37° C. The antibody and isotype control (reference channel) were coupled at 100 RU immobilization level to CM5 chip (GE Healthcare). Peptides were synthesized and diluted into HBS-EP+ running buffer (GE Healthcare). The binding data were analyzed using Biacore Evaluation Software, version 3.0.
Chain of cynomolgus CTLA4 (cynoCTLA4) (G7PL88 entry or part of it limits assumed): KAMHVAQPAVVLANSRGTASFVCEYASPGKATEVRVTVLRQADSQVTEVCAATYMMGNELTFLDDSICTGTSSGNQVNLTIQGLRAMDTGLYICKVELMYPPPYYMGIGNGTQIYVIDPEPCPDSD

In assay [5] the target is T3, human CTLA4 (huCTLA4) (human, UniProt P16410 36-161, limits assumed). Nature of the assay: SPR, Biacore T200, 37 C. The protocol:
as §1
In general terms: SPR reads the build-up and loss of mass on a sensor chip optically.

The target of assay [6] is T3, human CTLA4 (huCTLA4). The assay can be described thus: SPR (Biacore), fit of the sensorgrams of FIG. 2A. As to the method: as §1
Assay [7] concerns the target T3, human CTLA4 (huCTLA4). The assay can be described thus: SPR, Biacore T200, 37 C; reference ipilimumab. As to the method:
as §1

In assay [8] the target is T2, FcγRIIIa on Jurkat effector cells …. The assay can be described thus: cell-based or functional assay. The source holds these as a separate data set.
Assay [9] concerns the target T4, cynoCTLA4-Fc (cynomolgus, UniProt G7PL88 36-161).
T4 construct: also called cynomolgus CTLA4-Fc
The assay can be described thus: SPR, channel Ch3. The protocol: as §1

The target of assay [10] is T5, rhCTLA4-Fc (recombinant human CTLA4-Fc) (human, UniProt P16410 36-162, limits assumed).
T5 construct: Used in SPR with the Fabs; not shown: Fc part; not described
T5 sequence (P16410 36-162 limits assumed): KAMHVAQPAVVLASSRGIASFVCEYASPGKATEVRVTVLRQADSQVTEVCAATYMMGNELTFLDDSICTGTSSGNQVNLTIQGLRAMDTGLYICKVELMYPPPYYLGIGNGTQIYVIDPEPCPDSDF
Nature of the assay: SPR, channel Ch3. The protocol:
as §1

In assay [11] the target is T4, cynoCTLA4-Fc. The assay can be described thus: SPR, average of three channels. The protocol: as §1
The target in assay [12] is T5, rhCTLA4-Fc (recombinant human CTLA4-Fc). The assay can be described thus: SPR, average of three channels. The protocol:
as §1

The target of assay [13] is T4, cynoCTLA4-Fc. The assay can be described thus: SPR, channel Ch1. As to the method:
as §1

For assay [14], the target named is T5, rhCTLA4-Fc (recombinant human CTLA4-Fc). The assay can be described thus: SPR, channel Ch1. As to the method: as §1
In assay [15] the target is T4, cynoCTLA4-Fc. Nature of the assay: SPR, channel Ch2. As to the method:
as §1

The target of assay [16] is T5, rhCTLA4-Fc (recombinant human CTLA4-Fc). Nature of the assay: SPR, channel Ch2. The protocol: as §1

T4 sequence (G7PL88 entry or part of it limits assumed): as the sequence (G7PL88 entry or part of it limits assumed) above
T3 sequence (P16410 36-161 limits assumed): as the sequence (G7PL88 entry or part of it limits assumed) above, with N14S, T18I, M106L counted along it
T1 sequence (P16410 36-162 limits assumed): as the sequence (P16410 36-162 limits assumed) above

B1: Antibody 1-1 (version of humanized anti-CTLA4 Antibody 1 having a wild-type Fc region) (antibody, V domains shown)
VH: QVQLQESGPGLVKPSETLSLTCSVTYHTITSGYDWTWIRKPPGKGMEWIGYISYSGNTNYNPSLKSRVTISRDTSKNQFFLKLSSVTAADTAVYYCASMMVPHYYVMDAWGQGTLVTVSSA
VL: DIVMTQTPLSLSVTPGQPASISCRSSQSLLNSDGNTYLYWYLQKPGQSPQLLIYLVSKLGSGVPNRFSGSGSGTDFTLKISRVEAEDVGVYYCVQGTHDPWTFGGGTKVEIKR
notes: VL 25 / VH 26 are inferred from the parallel a)/b) order of the embodiments and because 30/31 go with the CDRs of Antibody 2; Full antibody with wild-type Fc
For the molecule B1, in assay [1], a half-maximal response (EC50) required 0.41 nM. The “EC50 of reporter activation (RLU), ADCC FcγRIIIa reporter bioassay with CTLA4 target cells” value (“EC50 of reporter activation (RLU)” below) in assay [2] was 1.05 ng/mL.

B2: Antibody 1-aFuc (afucosylated version of Antibody 1) (antibody, V domains shown)
VH: QVQLQESGPGLVKPSETLSLTCSVTYHTITSGYDWTWIRKPPGKGMEWIGYISYSGNTNYNPSLKSRVTISRDTSKNQFFLKLSSVTAADTAVYYCASMMVPHYYVMDAWGQGTLVTVSSA
VL: DIVMTQTPLSLSVTPGQPASISCRSSQSLLNSDGNTYLYWYLQKPGQSPQLLIYLVSKLGSGVPNRFSGSGSGTDFTLKISRVEAEDVGVYYCVQGTHDPWTFGGGTKVEIKR
modifications: afucosylated Fc glycan
notes: Variable domains inferred as for Antibody 1-1; Afucosylated full antibody
Consider B2, for which the “EC50 of reporter activation (RLU)” value in assay [3] and in assay [2] was 0.163 ng/mL in each case. The molecule further gave an EC50 in [1] of 0.41 nM.

B3: Antibody 1-2 (version of Antibody 1 having a S239D mutation and an I332E mutation in the Fc region) (antibody, V domains shown)
VH: QVQLQESGPGLVKPSETLSLTCSVTYHTITSGYDWTWIRKPPGKGMEWIGYISYSGNTNYNPSLKSRVTISRDTSKNQFFLKLSSVTAADTAVYYCASMMVPHYYVMDAWGQGTLVTVSSA
VL: DIVMTQTPLSLSVTPGQPASISCRSSQSLLNSDGNTYLYWYLQKPGQSPQLLIYLVSKLGSGVPNRFSGSGSGTDFTLKISRVEAEDVGVYYCVQGTHDPWTFGGGTKVEIKR
notes: Variable domains inferred as for Antibody 1-1; Full antibody with S239D and I332E in the Fc region
B3: the EC50 in [1] is 0.56 nM. Besides, the “EC50 of reporter activation (RLU)” value in assay [2] turned out to be 0.327 ng/mL.

B4: Antibody 2-1 (version of humanized anti-CTLA4 Antibody 2 having a wild-type Fc region) (antibody)
VH: not shown
VL: EIVLTQSPDFQSVTPKEKVTITCSANSALSYMYWYQQKPDQSPKLWVHGTSNLASGVPSRFSGSGSGTDFTLTINSLEAEDAATYYCHHWSNTQWTFGGGTKVEIKRTVAAPSVFIFPPSDEQLKSGTASVVCLLNNFYPREAKVQWKVDNALQSGNSQESVTEQDSKDSTYSLSSTLTLSKADYEKHKVYACEVTHQGLSSPVTKSFNRGEC
notes: Full antibody with wild-type Fc; copies: 2 + 2
B4: it took 0.33 nM to reach a half-maximal effect in assay [1] (EC50).

B5: Antibody 2-6 (a version of Antibody 2 having a S239D mutation, an I332E mutation in the Fc region) (antibody)
VH: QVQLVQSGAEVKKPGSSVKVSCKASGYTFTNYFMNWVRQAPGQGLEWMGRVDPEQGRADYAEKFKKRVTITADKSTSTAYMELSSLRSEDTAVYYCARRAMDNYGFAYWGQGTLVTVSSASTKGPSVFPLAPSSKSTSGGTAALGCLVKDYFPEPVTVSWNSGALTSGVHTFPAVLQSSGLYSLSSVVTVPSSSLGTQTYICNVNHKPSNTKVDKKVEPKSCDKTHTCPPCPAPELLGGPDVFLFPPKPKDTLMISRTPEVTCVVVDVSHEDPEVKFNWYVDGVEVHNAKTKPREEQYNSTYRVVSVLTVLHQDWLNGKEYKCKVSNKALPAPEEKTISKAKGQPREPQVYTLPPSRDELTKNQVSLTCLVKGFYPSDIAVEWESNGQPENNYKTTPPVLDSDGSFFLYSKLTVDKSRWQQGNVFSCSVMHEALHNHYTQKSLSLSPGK
VL: EIVLTQSPDFQSVTPKEKVTITCSANSALSYMYWYQQKPDQSPKLWVHGTSNLASGVPSRFSGSGSGTDFTLTINSLEAEDAATYYCHHWSNTQWTFGGGTKVEIKRTVAAPSVFIFPPSDEQLKSGTASVVCLLNNFYPREAKVQWKVDNALQSGNSQESVTEQDSKDSTYSLSSTLTLSKADYEKHKVYACEVTHQGLSSPVTKSFNRGEC
notes: copies: 2 + 2
On to B5, for which the Kd in assay [4] amounted to 0.131 nM; in the assay with human CTLA4 (huCTLA4) [5], 0.091 nM. The same molecule displayed a koff in the assay with human CTLA4 (huCTLA4) [6] of 3.33e-05 s⁻¹. The molecule also gave a kon with human CTLA4 (huCTLA4) [6] of 366000 M⁻¹ s⁻¹. Also, the “fold greater binding affinity than ipilimumab (by KD)” value with human CTLA4 (huCTLA4) [7] was ~18 fold.

B6: Antibody 2-aFuc (afucosylated version of Antibody 2) (antibody, V domains shown)
VH: QVQLVQSGAEVKKPGSSVKVSCKASGYTFTNYFMNWVRQAPGQGLEWMGRVDPEQGRADYAEKFKKRVTITADKSTSTAYMELSSLRSEDTAVYYCARRAMDNYGFAYWGQGTLVTVSSA
VL: EIVLTQSPDFQSVTPKEKVTITCSANSALSYMYWYQQKPDQSPKLWVHGTSNLASGVPSRFSGSGSGTDFTLTINSLEAEDAATYYCHHWSNTQWTFGGGTKVEIKR
modifications: afucosylated Fc glycan
notes: Afucosylated full antibody
In the case of B6, the “EC50 of reporter activation (RLU)” value in assay [8] and in assay [3] was 0.0177 ng/mL in each case. In addition, in assay [1], the EC50 was determined as 0.36 nM.

B7: Antibody 2-Fab (a Fab of Antibody 2) (Fab, V domains shown)
VH: QVQLVQSGAEVKKPGSSVKVSCKASGYTFTNYFMNWVRQAPGQGLEWMGRVDPEQGRADYAEKFKKRVTITADKSTSTAYMELSSLRSEDTAVYYCARRAMDNYGFAYWGQGTLVTVSS
VL: EIVLTQSPDFQSVTPKEKVTITCSANSALSYMYWYQQKPDQSPKLWVHGTSNLASGVPSRFSGSGSGTDFTLTINSLEAEDAATYYCHHWSNTQWTFGGGTKVEIKR
notes: Fab
For the molecule B7, the Kd worked out at 0.92 nM with cynoCTLA4-Fc [9]; 0.00555 nM in [10]; 0.779 nM with cynoCTLA4-Fc [11]; 0.00386 nM in assay [12]; 0.623 nM with cynoCTLA4-Fc [13]; 0.00453 nM in assay [14]. Also, the figures for the Kd (with cynoCTLA4-Fc [15]; in assay [16]) were 0.794 nM and 0.00151 nM, respectively. In addition, the koff in the assay with cynoCTLA4-Fc [9] was 0.000234 s⁻¹; in assay [10], 1.84e-06 s⁻¹; with cynoCTLA4-Fc [13] it was 0.000226 s⁻¹; in assay [14] it was 1.63e-06 s⁻¹; with cynoCTLA4-Fc [15] it was 0.000229 s⁻¹; in [16], 5.19e-07 s⁻¹. Besides, the kon with cynoCTLA4-Fc [9] is 254000 M⁻¹ s⁻¹; in assay [10], 331000 M⁻¹ s⁻¹; in the assay with cynoCTLA4-Fc [13], 363000 M⁻¹ s⁻¹; in [14] it was 361000 M⁻¹ s⁻¹; with cynoCTLA4-Fc [15] it was 289000 M⁻¹ s⁻¹; in [16], 345000 M⁻¹ s⁻¹.
